This note sets out measurements from US20240238445A1, “INHIBITORS AND USES THEREOF” (NEURACLE SCIENCE CO., LTD., priority 2021, published 2024).

The target in experiment [1] is binding of FAM19A5 protein to full-length ectodomain of the LRRC4B protein (amino acids 36-576 of SEQ ID NO: 2) (Homo sapiens, UniProt Q7Z5A7). Put plainly: Competitive inhibition assay, plate coated with full-length ectodomain of LRRC4B (amino acids 36-576). The following applies: for inhibition of interaction between FAM19A5 and the coated LRRC4B protein fragments (in words): statement covers both coats, LRRC4B (36-576) and LRRC4B (453-576). The method, then:
Next, to further assess the role that the binding domain of the LRRC4B protein has on the interaction between FAM19A5 protein and members of the LRRC4 protein family, a competitive inhibition assay was used to determine whether different LRRC4B deletion constructs from Example 2 could inhibit the binding of FAM19A5 to the full-length ectodomain of the LRRC4B protein (i.e., amino acids 36-576 of SEQ ID NO: 2; SEQ ID NO: 5). Briefly, 100 nM of the full-length ectodomain of the LRRC4B protein was used to coat a plate, and then recombinant FAM19A5 protein (5 ng/mL) was added to the plate in combination with the following LRRC4B deletion constructs (increasing concentrations): (1) LRRC4B (453-576) (i.e., construct #11 in Table 6); (2) LRRC4B (453-576) mutant (comprises alanine substitutions at positions 488 and 489 of SEQ ID NO: 2; SEQ ID NO: 16); (3) LRRC4B (484-576) (i.e., construct #12 in Table 6); (4) LRRC4B (482-576); (5) LRRC4B (482-497); and (6) LRRC4B (498-576). The plates were incubated at 37° C., and then, the amount of FAM19A5 bound to the coated LRRC4B ectodomain protein was measured using HRP-conjugated anti-FAM19A5 (1-65) antibody.
As described in Example 3, there appeared to be much similarity in the binding domains of the different members of the LRRC4 family. […] Then, recombinant FAM19A5 protein (5 ng/mL) was added in combination with one of the following: (i) LRRC4B (484-576) protein fragment, (ii) LRRC4B (453-576, AA) protein fragment, and (iii) synthetic FB-20 peptide. The plates were incubated at 37° C., and then, the amount of FAM19A5 protein bound to the coated LRRC4, LRRC4B, or LRRC4C proteins was measured using anti-FAM19A5 (1-65) antibody.
(§1) Next, to assess whether polypeptides comprising the binding domains of LRRC4 or LRRC4C proteins can have similar inhibitory effects on LRRC4B protein binding, the following synthetic peptides were constructed: (1) FBC4-23 (contains the binding domain of the LRRC4 protein, i.e., YSFFTTVTVETTE); and (2) FBC4C-23 (contains the binding domain of the LRRC4C protein, i.e., FSYFSTVTVETME). Then, the ability of the peptides to inhibit the binding of LRRC4 protein family members to FAM19A5 protein was assessed using a competitive inhibition assay. Briefly, plates were coated with 100 nM of either LRRC4B protein fragment #1 (amino acids 36-576 of SEQ ID NO: 2; SEQ ID NO: 5) or LRRC4B protein fragment #2 (amino acids 453-576 of SEQ ID NO: 2; SEQ ID NO: 7). Then, recombinant FAM19A5 protein (5 ng/ml for plates coated with LRRC4B fragment #1; and 1 ng/mL for plates coated with LRRC4B fragment #2) was added to the plates in combination with 20 nM of the FBC4-23, FBC4C-23, and FB-20 peptides. The plates were incubated at 37° C. and then, the amount of FAM19A5 protein bound to the coated LRRC4B protein fragments was assessed using HRP-conjugated anti-FAM19A5 (1-65) antibody.
Next, to determine the minimal sequence required to inhibit the interaction of FAM19A5 and members of the LRRC4 protein family, ten FB-20 peptide variants were constructed by serially deleting one or more amino acids from the N-terminus or C-terminus of the FB-20 peptide. Then, a competitive inhibition assay was used to assess the ability of the different FB-20 peptide variants to inhibit the interaction between FAM19A5 and LRRC4B protein. Again, plates were coated with 100 nM of either LRRC4B protein fragment #1 (amino acids 36-576 of SEQ ID NO: 2; SEQ ID NO: 5) or LRRC4B protein fragment #2 (amino acids 453-576 of SEQ ID NO: 2; SEQ ID NO: 7). Then, recombinant FAM19A5 protein (5 ng/ml for plates coated with LRRC4B fragment #1; and 1 ng/mL for plates coated with LRRC4B fragment #2) was added to the plates in combination with 20 nM of the different peptides described above. After incubating the plates at 37° C., the amount of FAM19A5 protein bound to the coated LRRC4B protein fragments was assessed using HRP-conjugated anti-FAM19A5 (1-65) antibody. […]

The target in experiment [2] is binding of FAM19A5 protein to LRRC4B (amino acids 453-576)-hFc (Homo sapiens, UniProt Q7Z5A7). Put plainly: Competitive inhibition assay, plate coated with LRRC4B (amino acids 453-576)-hFc, peptides at 20 nM.
Sequence of binding of FAM19A5 protein to LRRC4B (amino acids 453-576)-hFc (Q7Z5A7 44-132): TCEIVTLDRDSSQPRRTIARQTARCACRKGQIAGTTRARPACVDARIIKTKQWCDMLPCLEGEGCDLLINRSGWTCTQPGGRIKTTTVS
Excerpt: as §1
Next, to determine the minimal sequence required to inhibit the interaction of FAM19A5 and members of the LRRC4 protein family, ten FB-20 peptide variants were constructed by serially deleting one or more amino acids from the N-terminus or C-terminus of the FB-20 peptide. Then, a competitive inhibition assay was used to assess the ability of the different FB-20 peptide variants to inhibit the interaction between FAM19A5 and LRRC4B protein. Again, plates were coated with 100 nM of either LRRC4B protein fragment #1 (amino acids 36-576 of SEQ ID NO: 2; SEQ ID NO: 5) or LRRC4B protein fragment #2 (amino acids 453-576 of SEQ ID NO: 2; SEQ ID NO: 7). Then, recombinant FAM19A5 protein (5 ng/ml for plates coated with LRRC4B fragment #1; and 1 ng/mL for plates coated with LRRC4B fragment #2) was added to the plates in combination with 20 nM of the different peptides described above. After incubating the plates at 37° C., the amount of FAM19A5 protein bound to the coated LRRC4B protein fragments was assessed using HRP-conjugated anti-FAM19A5 (1-65) antibody.
To identify the critical amino acid residues, multiple FB-20 peptide mutants were constructed, in which the individual residues of the core binding domain (i.e., YTYFTTVTVETLE; SEQ ID NO: 15) were substituted with alanine (A) or asparagine (N). Then, the ability of these FB-20 peptide mutants to inhibit the interaction between LRRC4B and FAM19A5 proteins was assessed, as described in Examples 3 and 4.

[3] abbreviates: Table 10, alanine/asparagine mutants.
Setting [4] is: Table 9, deletion variants, 20 nM peptide, FAM19A5 5 ng/ml.
The mark [5] stands for this setting: Table 9, deletion variants, 20 nM peptide, FAM19A5 1 ng/mL.

Sequence of binding of FAM19A5 protein to full-length ectodomain of the LRRC4B protein (amino acids 36-576 of SEQ ID NO: 2) (Q7Z5A7 44-132): as above

On to GYAYFTTVTVETLETQPGEE [FB-20[A2]], for which the “Inhibition rate (%) LRRC4B (amino acids 36-576)-hFc” value in experiment [1] (setting [3]) is reported as 1.0%. Further, the “Inhibition rate (%) LRRC4B (amino acids 453-576)-hFc” value in experiment [2] (setting [3]) is given as −0.4%.

On to NFSYFSTVTVETMEPSQDERTTR [FBC4C-23], for which, in experiment [1] (20 nM peptide), the “inhibition of interaction between FAM19A5 and the coated LRRC4B protein fragments (in words)” value is given as “significantly decreased the interaction”. Besides, the “Inhibition rate (%) LRRC4B (amino acids 36-576)-hFc” value in experiment [1] (Table 8, 20 nM peptide, FAM19A5 5 ng/ml) stood at 65.7%. The “Inhibition rate (%) LRRC4B (amino acids 453-576)-hFc” value in experiment [2] (Table 8, 20 nM peptide, FAM19A5 1 ng/mL) was 40.4%.

GYTYFTTVTAETLETQPGEE [FB-20[A9]]: in experiment [1] (setting [3]), the “Inhibition rate (%) LRRC4B (amino acids 36-576)-hFc” value was determined as 21.5%. In addition, the “Inhibition rate (%) LRRC4B (amino acids 453-576)-hFc” value in experiment [2] (setting [3]) was 3.8%.

On to GYTYFTTATVETLETQPGEE [FB-20[A7]], for which, in experiment [1] (setting [3]), the “Inhibition rate (%) LRRC4B (amino acids 36-576)-hFc” value is recorded as 26.8%. Besides, the “Inhibition rate (%) LRRC4B (amino acids 453-576)-hFc” value in experiment [2] (setting [3]) amounted to 7.9%.

Consider GNTYFTTVTVETLETQPGEE [FB-20[N1]], for which, in experiment [1] (setting [3]), the “Inhibition rate (%) LRRC4B (amino acids 36-576)-hFc” value stood at 11.9%. The “Inhibition rate (%) LRRC4B (amino acids 453-576)-hFc” value in experiment [2] (setting [3]) is 3.1%.

On to GYTYATTVTVETLETQPGEE [FB-20[A4]], for which the “Inhibition rate (%) LRRC4B (amino acids 36-576)-hFc” value in experiment [1] (setting [3]) is reported as 2.7%. Besides, the “Inhibition rate (%) LRRC4B (amino acids 453-576)-hFc” value in experiment [2] (setting [3]) turned out to be 1.5%.

For KNYTYFTTVNKETQ [FB-m7dC], the “inhibition of interaction between FAM19A5 and the coated LRRC4B protein fragments (in words)” value in experiment [1] (20 nM peptide) is reported as “failed to significantly inhibit”. Moreover, the “Inhibition rate (%) LRRC4B (amino acids 36-576)-hFc” value in experiment [1] (setting [4]) turned out to be 4.4%. In addition, the “Inhibition rate (%) LRRC4B (amino acids 453-576)-hFc” value in experiment [2] (setting [5]) was found to be 0.4%.

GYTYFTTVTVETAETQPGEE [FB-20[A12]]: the “Inhibition rate (%) LRRC4B (amino acids 36-576)-hFc” value in experiment [1] (setting [3]) is reported as 73.0%. Also, in experiment [2] (setting [3]), the “Inhibition rate (%) LRRC4B (amino acids 453-576)-hFc” value is 56.2%.

Regarding GYTYFNTVTVETLETQPGEE [FB-20[N5]], the “Inhibition rate (%) LRRC4B (amino acids 36-576)-hFc” value in experiment [1] (setting [3]) was determined as 56.1%. In addition, the “Inhibition rate (%) LRRC4B (amino acids 453-576)-hFc” value in experiment [2] (setting [3]) came out at 30.5%.

KNYTYFTTVTVETNKETQ [FB-m11dC]: in experiment [1] (20 nM peptide), the “inhibition of interaction between FAM19A5 and the coated LRRC4B protein fragments (in words)” value was “substantially inhibited the interaction”. Moreover, the “Inhibition rate (%) LRRC4B (amino acids 36-576)-hFc” value in experiment [1] (setting [4]) is on record as 65.0%. In addition, the “Inhibition rate (%) LRRC4B (amino acids 453-576)-hFc” value in experiment [2] (setting [5]) was 30.4%.

In the case of KNYTYFTTVTVNKETQ [FB-m9dC], the “inhibition of interaction between FAM19A5 and the coated LRRC4B protein fragments (in words)” value in experiment [1] (20 nM peptide) is listed as “failed to significantly inhibit”. For the same molecule, the “Inhibition rate (%) LRRC4B (amino acids 36-576)-hFc” value in experiment [1] (setting [4]) is 16.8%. In addition, in experiment [2] (setting [5]), the “Inhibition rate (%) LRRC4B (amino acids 453-576)-hFc” value worked out at 2.7%.

With GYTYFTTNTVETLETQPGEE [FB-20[N7]], the “Inhibition rate (%) LRRC4B (amino acids 36-576)-hFc” value in experiment [1] (setting [3]) came to 24.5%. Besides, in experiment [2] (setting [3]), the “Inhibition rate (%) LRRC4B (amino acids 453-576)-hFc” value is on record as 8.3%.

B1: LRRC4B (482-576): LRRC4B ectodomain fragment, amino acids 482-576 of SEQ ID NO: 2 (protein)
chain: GGYTYFTTVTVETLETQPGEEALQPRGTEKEPPGPTTDGVWGGGRPGDAAGPASSSTTAPAPRSSRPTEKAFTVPITDVTENALKDLDDVMKTTK
As for B1, the “inhibition of FAM19A5 binding to coated full-length LRRC4B ectodomain protein (in words)” value in experiment [1] (increasing concentrations, FAM19A5 5 ng/mL, 100 nM coat) is “also able to inhibit the interaction”.
